Our source for the ELISA activity [%] compared with the reference standard values is US20090136484A1.

The target in test [1] is T1, Biotin-… (epitope sequence from candidal Hsp90) (Candida). The experiment in a line: ELISA, biotinylated peptide on streptavidin plate, anti-His-HRP detection; Site 2; sample in 50 mM Tris, 1 M sucrose, ~0.2% Tween20, 3 mM DTT, pH 3.0.
Test [2] has as its target T1, Biotin-… (epitope sequence from …). The experiment in a line: ELISA, biotinylated peptide on streptavidin plate, anti-His-HRP detection; Site 1; sample in 50 mM Tris, 1 M sucrose, ~0.2% Tween20, 3 mM DTT, pH 3.0.
Test [3] has the same target. The experiment in a line: ELISA, biotinylated peptide on streptavidin plate, anti-His-HRP detection; Site 2; sample in 50 mM Tris, 3 mM DTT, pH 9.0. For orientation: In an ELISA, binding on a coated surface is turned into a signal by an enzyme label.
Test [4] has the same target. Kind of test: ELISA, biotinylated peptide on streptavidin plate, anti-His-HRP detection; Site 2; sample in 50 mM Tris, pH 9.0.
Test [5] shares this target. The experiment in a line: ELISA, biotinylated peptide on streptavidin plate, anti-His-HRP detection; Site 1; sample in 50 mM Tris, 3 mM DTT, pH 9.0.
For test [6] the target is unchanged. Kind of test: ELISA, biotinylated peptide on streptavidin plate, anti-His-HRP detection; Site 2; sample in 0.5 M urea, 0.2 M L-arginine pH 9.5.
Test [7] has the same target. Kind of test: ELISA, biotinylated peptide on streptavidin plate, anti-His-HRP detection; Site 1; sample in 0.5 M urea, 0.2 M L-arginine pH 9.5.
For test [8] the target is unchanged. The experiment in a line: ELISA, biotinylated peptide on streptavidin plate, anti-His-HRP detection; Site 1; sample in 50 mM Tris, pH 9.0.

B1: MYC123 ("wild type" Mycograb) scFv peptide (scFv)
scFv: MAEVQLVESGAEVKKPGESLRISCKGSGCIISSYWISWVRQMPGKGLEWMGKIDPGDSYINYSPSFQGHVTISADKSINTAYLQWNSLKASDTAMYYCARGGRDFGDSFDYWGQGTLVTVSSGGGGSGGGGSGGGGSDVVMTQSPSFLSAFVGDRITITCRASSGISRYLAWYQQAPGKAPKLLIYAASTLQTGVPSRFSGSGSGTEFTLTINSLQPEDFATYYCQHLNSYPLTFGGGTKVDIKRAAALEHHHHHH
As for B1, the ELISA activity [%] compared with the reference standard stood at 130% in test [1]; 135% in test [2]; 131% in test [3]; 95% in test [4]; 85% in test [5]; 78% in test [6]. The ELISA activity [%] compared with the reference standard in test [7] is 90%; in test [8] it was 71%.
